Laboratory results published in patent publication EP4335867A1 (Cellemedy Co., Ltd, dated 2024).

Biological target: T1, human transferrin receptor-Fc tag standard (human, UniProt P02786 89-760, limits assumed)
T1 construct: Coated on a 96 well plate at 2 ug/ml; also called hTfR; not shown: Fc tag
Assay: ELISA on plate-bound hTfR-Fc with anti-His detection; Kd calculated from an expected saturation point, since the curve was not saturated

T1 sequence (P02786 89-760 limits assumed): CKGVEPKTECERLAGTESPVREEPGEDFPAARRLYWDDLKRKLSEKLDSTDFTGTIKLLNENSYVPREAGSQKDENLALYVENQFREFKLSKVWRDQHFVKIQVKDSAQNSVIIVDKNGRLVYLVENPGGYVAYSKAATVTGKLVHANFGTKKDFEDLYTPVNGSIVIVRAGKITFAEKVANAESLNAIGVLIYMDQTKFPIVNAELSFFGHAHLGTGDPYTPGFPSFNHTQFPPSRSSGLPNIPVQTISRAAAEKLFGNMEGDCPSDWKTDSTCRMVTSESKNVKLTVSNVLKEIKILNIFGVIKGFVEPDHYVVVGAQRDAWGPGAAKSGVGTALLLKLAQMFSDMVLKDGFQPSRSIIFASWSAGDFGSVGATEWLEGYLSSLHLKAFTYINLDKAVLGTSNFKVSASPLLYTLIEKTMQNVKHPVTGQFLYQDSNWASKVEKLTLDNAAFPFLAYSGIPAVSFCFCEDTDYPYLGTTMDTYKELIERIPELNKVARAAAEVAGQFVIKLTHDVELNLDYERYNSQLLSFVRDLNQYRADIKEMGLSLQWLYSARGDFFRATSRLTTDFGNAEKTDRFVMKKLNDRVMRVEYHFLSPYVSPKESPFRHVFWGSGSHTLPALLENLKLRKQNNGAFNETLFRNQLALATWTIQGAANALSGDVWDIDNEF

B1: huHF_Mutant2-dual (designed binder)
chain: MTTASTSQVRQNYHAASEAAINAQINLELYASYVYLSMSYYFDRDDVALKNFAKYFLHQSHEEREHAEKLMKLQNQRGGRIALADIQKPDCDDGGSYGSLYAFDIWESGLNAMECALHLEKNVNQSLLALHALATAKNDPHLCDFIETHYLNEQVKAIKELGDHVTNLRKMGAPESGLAEYLFDKHTLGDSDNESMPSFITLASLSTWEGYFDF
notes: Spherical nanoparticle of 24 self-assembled monomers, made in E. coli; not shown: A hexa-His tag is present (Ni-NTA purification, anti-His detection)
- Kd: ~4.4 µM
